Source: the RNAGym collection of RNA variant scans (doi:10.7554/elife.80360)

B1: HDV Ribozyme (parent)
chain: GGCCGGCAUGGUCCCAGCCUCCUCGCUGGCGCCGGCUGGGCAACAUUCCGAGGGGACCGUCCCCUCGGUAAUGGCGAAUGGGACCCA

Variants of: B1
Test: self-cleavage, relative activity (ratio to wild type); higher = more cleavage; co-transcriptional

First: GGCCGGCAUGGUCCCAGCCUCCUCGCUGGCGCCGGCUUGGCAACAUUCCGAGGGGACCGUCCCCUCGGUAAUUGCGAAUGGGACCCA
Second: GGCCGGCAUGGUCCCAGCCCCCUCGCUGGCGCCGGAUGGGCAACAUUCCGAGGGGACCGUCCCCUCGGUAAUGGCGAAUGGGACCCA
The self-cleavage of the first is higher: 0.146 for the first, 0 for the second.

Compared with GGCCGGCAUGGUCCCAGCCUCCUCACUGGCGCCGGCUGGGCAACAUUCCGAGGGGACCGUCCCCUCGGUAUUGGCGAAUGGGACCCA, GGCCGGCAUGGUCCCAGCCUCCUCGCUGGCGCCGGCUGAGCAACAUUUCGAGGGGACCGUCCCCUCGGUAAUGGCGAAUGGGACCCA is higher in self-cleavage: 0.0369 for the first, 0.504 for the second.

Going from GGGCGGCAUGGUCCCAGCCUCCUCGCUGGCGCCGGCUGGGCAACAUUCCGAGGGGACCGUCGCCUCGGUAAUGGCGAAUGGGACCCA to GGCCGGCAUGGUCCCAGCCUCCUCGCUGGCGCCGGCUGGGCAACAUUCCGAGGGGAGCAUCCCCUCGGUAAUGGCGAAUGGGACCCA, the self-cleavage rises from 0.169 to 0.997.

Compared with GGCCGGCAUGGUCCCAGCCUCCUCGCUGGCGCCGGCUGGGCAACAUUCCUAGGGGACCGUCCCCUCGGUAAUGGCGAAUGGGACCCG, GGCCGGCAUGGUCCCAGCCCCCUCGCUGGCGCCGGCUGGGCAACAUUUCGAGGGGACCGUCCCCUCGGUAAUGGCGAAUGGGACCCA is lower in self-cleavage: 0.927 for the first, 0.0791 for the second.

Going from GGCCGGCAUGGUCCCAGCCUCCUCGCUGGCGCCGGCUGGGCAACAUUCAGAGGGGACCGUCCCCUCGGUAAUGGCGAAUGGGCCCCA to GGCCGGCAUGGUCCCAGCCUACUCGCUGGCGCCGGCUGGGCAACAUUCCGAGGGGACCGUCCCCUCGGUAAUGGCGAAUGGGACCCC, the self-cleavage falls from 0.6 to 0.0742.

Compared with GGCCGGCAUGGUCCCAGCCUCCUCGAUGGCGCCGGCUGGGCAACAUUCCGAGGGGACCGUCCCCUCGGUAAUGGCGAAUGGGAUCCA, GGCCGGCAUGGCCCCAGCCUCCUCGCUGACGCCGGCUGGGCAACAUUCCGAGGGGACCGUCCCCUCGGUAAUGGCGAAUGGGACCCA is lower in self-cleavage: 0.854 for the first, 0.0415 for the second.

Compared with GGCCGGCAUGGUCCCAGCUUCCUCGCUGGCGCCGGCCGGGCAACAUUCCGAGGGGACCGUCCCCUCGGUAAUGGCGAAUGGGACCCA, GGCCGGCAUGGUCCCAGCCUCCUCGCUGGCGCCGCCUGAGCAACAUUCCGAGGGGACCGUCCCCUCGGUAAUGGCGAAUGGGACCCA is lower in self-cleavage: 0.185 for the first, 0.178 for the second.

First: GGCCGGCAUGGUCCCAGCCACCUCGCUGGCGCCGGCUGGGCAACAUUCCGAGGGGACCGUCCCCUCGGUAAUGGCGAAUGUGACCCA
Second: GGCCGGCAUGGUCCCAGCCUCCUCGCUGGCGCCGGCUGGUCAACAUUCCGAGGGGACCGUCCCCUCGGUAAUGGCGAAUGGCACCCA
The self-cleavage of the first is lower: 0.0346 for the first, 0.157 for the second.

First: GGCCGGCAUGGUCCCAGCCUCCUCGCUGGCGCCGUCUGGGCAACAUUCCGAGGGGACCGUCACCUCGGUAAUGGCGAAUGGGACCCA
Second: GGCCGGCAUGGUCCCAGCCUCCGCGCUGGCGCCGGCUGGGCAACAUUCCGAGGGGACCGGCCCCUCGGUAAUGGCGAAUGGGACCCA
The self-cleavage of the first is lower: 0.261 for the first, 0.665 for the second.

Going from GGCCGGCAUGGUCCCAGCCUCCUCGCUGGCGGCGGCUGGGCAACAUUCCGAGGGGACCGUCCCCUCGGUAAGGGCGAAUGGGACCCA to GGCCGGCAUGGUCCCAGCCUCCUCGCUGGCGCCGGCUGGGCAACAUUCCGAGGGGACCGUCCCCUCGGUAAGGGAGAAUGGGACCCA, the self-cleavage rises from 0.0519 to 0.0665.

Compared with GGCCGGCAUGGUCCCAGCCUCCUCGCUGGCGCCAGCUGGGCAACAUUCCGAGCGGACCGUCCCCUCGGUAAUGGCGAAUGGGACCCA, GGCCGGCAUGGUCCCAGCCUCCUCGCUGGCGCCGGCUGGGCAACAGUCCGAGGGGACCGUCCCCUCGGAAAUGGCGAAUGGGACCCA is higher in self-cleavage: 0.215 for the first, 0.665 for the second.

Going from GGCCGGCAUGGUCCCAGCCUCCUCGCUGGCGCCGGCUGGGCAACAUUCCGAGGGGACCGUCCCCUCGGUAAUAGCGAAUUGGACCCA to GGCCGGCAUGGGCCCAGCCUCCUCGCUGGCGCCGGCUGGGCAACAUUCCGAGGAGACCGUCCCCUCGGUAAUGGCGAAUGGGACCCA, the self-cleavage rises from 0.153 to 0.831.

Going from GGCCGGCAUGGUCUCAGCCUCCUCGCUGGCGCCGGCUGGGCAACAUUCCGAGGGGACCGUUCCCUCGGUAAUGGCGAAUGGGACCCA to GCCCGGCAUGGUCCCAGCCUCCUCGCUGGCGCCGGCUGGGCAACAUUCCGAGGGGAACGUCCCCUCGGUAAUGGCGAAUGGGACCCA, the self-cleavage falls from 1.22 to 0.086.

Going from GGCCGGCAUGGUCCCAGCCUCCUCGCUGGCGCCGUCUGGGCAACAUUCCGAGGGGAUCGUCCCCUCGGUAAUGGCGAAUGGGACCCA to GGCCGGCAUGGUCCCAGCCUCCUCGCUGGCGCCGGCUGGGCAACAUUCCGAUGGGACCGUCCCCUCGGUAAUGGCGAAUGGGACCCG, the self-cleavage rises from 0.538 to 0.906.

Compared with GGCCGGCAUGGUCCCAGCCUCUUCGCUGGCGCCGGCUGGGCAACAUACCGAGGGGACCGUCCCCUCGGUAAUGGCGAAUGGGACCCA, GGCCAGCAUGGGCCCAGCCUCCUCGCUGGCGCCGGCUGGGCAACAUUCCGAGGGGACCGUCCCCUCGGUAAUGGCGAAUGGGACCCA is lower in self-cleavage: 0.584 for the first, 0.145 for the second.

Going from GGCCGGCAGGGUCCCAGCCUCCUCGCUGGCGCCGGCUGGGCAACAUUCCGAGGGGACCGUCCCCUCGGUAAUGGCGAAUAGGACCCA to GGCCGGCAUGGUCCCAGCCUCCUCGCUGGCGCCGGCUGGGGAACCUUCCGAGGGGACCGUCCCCUCGGUAAUGGCGAAUGGGACCCA, the self-cleavage falls from 0.516 to 0.166.
